Measurements published in paper PMC10343182, “Homogeneous Electrochemical Aptamer Sensor Based on Two-Dimensional Nanocomposite Probe and Nanochannel Modified Electrode for Sensitive Detection of Carcinoembryonic Antigen”.

What was measured:
alpha fetoprotein (AFP) = biological target: T1, alpha fetoprotein (AFP) (UniProt P02771 19-609); test: electrochemical sensor (DPV), aptamer release from graphene oxide; Ru(NH3)6 3+, GO; PBS (sodium phosphate) 0.01 M, pH 7.4; GO 0.1 mg/mL, aptamer 1 uM, Ru(NH3)6 3+ 50 uM (optimum); temperature not stated; conditions: protein: commercial
T1 sequence: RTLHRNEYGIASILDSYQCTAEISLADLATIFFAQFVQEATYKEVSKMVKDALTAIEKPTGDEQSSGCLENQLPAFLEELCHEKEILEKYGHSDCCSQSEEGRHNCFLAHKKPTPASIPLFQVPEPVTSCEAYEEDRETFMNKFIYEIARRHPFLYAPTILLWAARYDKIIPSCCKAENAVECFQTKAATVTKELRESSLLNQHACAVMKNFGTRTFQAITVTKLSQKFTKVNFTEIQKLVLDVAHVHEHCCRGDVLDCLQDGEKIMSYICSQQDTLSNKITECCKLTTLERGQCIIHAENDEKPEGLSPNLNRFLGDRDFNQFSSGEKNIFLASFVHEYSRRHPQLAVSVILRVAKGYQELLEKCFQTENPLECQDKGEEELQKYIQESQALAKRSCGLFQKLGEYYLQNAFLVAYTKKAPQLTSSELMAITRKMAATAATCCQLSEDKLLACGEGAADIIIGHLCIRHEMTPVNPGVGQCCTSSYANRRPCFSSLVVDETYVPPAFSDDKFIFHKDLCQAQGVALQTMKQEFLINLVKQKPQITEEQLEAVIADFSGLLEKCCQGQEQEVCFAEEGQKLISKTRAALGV

[1] = biological target: cancer antigen 153 (CA153) (UniProt P15941 24-1097); test: as above; conditions: protein: commercial
[2] = biological target: prostate specific antigen (PSA) (UniProt P07288 25-261); test: as above; conditions: protein: commercial
C-reactive protein (CRP) = biological target: T2, C-reactive protein (CRP) (UniProt P02741 19-224); test: as above; conditions: protein: commercial; chain copies: 5
T2 sequence: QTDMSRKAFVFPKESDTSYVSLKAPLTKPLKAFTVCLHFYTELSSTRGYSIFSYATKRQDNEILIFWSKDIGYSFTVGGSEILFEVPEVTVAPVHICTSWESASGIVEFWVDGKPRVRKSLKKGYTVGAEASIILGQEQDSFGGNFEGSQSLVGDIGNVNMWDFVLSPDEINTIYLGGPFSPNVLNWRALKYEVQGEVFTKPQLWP

[3] = biological target: carcinoembryonic antigen (CEA) (UniProt P06731 35-685); test: electrochemical sensor (DPV/CV), aptamer release from graphene oxide; Ru(NH3)6 3+, GO; sensor LOD 14 fg/mL, linear 60 fg/mL-100 ng/mL (not Kd); PBS (sodium phosphate) 0.01 M, pH 7.4; GO 0.1 mg/mL, aptamer 1 uM, Ru(NH3)6 3+ 50 uM (optimum); temperature not stated; conditions: protein: commercial
Chain of carcinoembryonic antigen (CEA) (P06731 35-685): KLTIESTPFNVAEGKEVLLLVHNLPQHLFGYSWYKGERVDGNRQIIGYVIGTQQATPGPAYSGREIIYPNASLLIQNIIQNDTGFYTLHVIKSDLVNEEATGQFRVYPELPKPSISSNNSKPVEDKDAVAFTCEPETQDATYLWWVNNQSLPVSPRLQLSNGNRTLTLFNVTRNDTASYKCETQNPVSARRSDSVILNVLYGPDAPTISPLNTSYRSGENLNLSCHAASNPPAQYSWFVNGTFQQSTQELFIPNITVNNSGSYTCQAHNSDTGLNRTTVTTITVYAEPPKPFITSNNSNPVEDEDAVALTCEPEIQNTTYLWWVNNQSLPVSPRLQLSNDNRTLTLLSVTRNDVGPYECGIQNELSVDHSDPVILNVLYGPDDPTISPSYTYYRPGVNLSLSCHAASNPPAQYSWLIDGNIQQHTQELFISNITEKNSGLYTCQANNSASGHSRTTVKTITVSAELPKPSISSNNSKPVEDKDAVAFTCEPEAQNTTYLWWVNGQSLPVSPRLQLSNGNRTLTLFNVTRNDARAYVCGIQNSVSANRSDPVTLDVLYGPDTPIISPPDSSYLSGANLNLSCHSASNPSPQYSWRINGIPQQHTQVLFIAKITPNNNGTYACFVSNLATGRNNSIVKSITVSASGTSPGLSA

Chain of prostate specific antigen (PSA) (P07288 25-261): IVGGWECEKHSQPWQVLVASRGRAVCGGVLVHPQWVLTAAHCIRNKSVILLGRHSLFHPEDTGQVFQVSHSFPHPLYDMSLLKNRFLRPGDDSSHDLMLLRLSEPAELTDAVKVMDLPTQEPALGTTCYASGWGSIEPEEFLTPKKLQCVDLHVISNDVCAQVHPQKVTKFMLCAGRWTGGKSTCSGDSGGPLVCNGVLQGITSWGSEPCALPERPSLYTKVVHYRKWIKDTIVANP
Chain of cancer antigen 153 (CA153) (P15941 24-1097): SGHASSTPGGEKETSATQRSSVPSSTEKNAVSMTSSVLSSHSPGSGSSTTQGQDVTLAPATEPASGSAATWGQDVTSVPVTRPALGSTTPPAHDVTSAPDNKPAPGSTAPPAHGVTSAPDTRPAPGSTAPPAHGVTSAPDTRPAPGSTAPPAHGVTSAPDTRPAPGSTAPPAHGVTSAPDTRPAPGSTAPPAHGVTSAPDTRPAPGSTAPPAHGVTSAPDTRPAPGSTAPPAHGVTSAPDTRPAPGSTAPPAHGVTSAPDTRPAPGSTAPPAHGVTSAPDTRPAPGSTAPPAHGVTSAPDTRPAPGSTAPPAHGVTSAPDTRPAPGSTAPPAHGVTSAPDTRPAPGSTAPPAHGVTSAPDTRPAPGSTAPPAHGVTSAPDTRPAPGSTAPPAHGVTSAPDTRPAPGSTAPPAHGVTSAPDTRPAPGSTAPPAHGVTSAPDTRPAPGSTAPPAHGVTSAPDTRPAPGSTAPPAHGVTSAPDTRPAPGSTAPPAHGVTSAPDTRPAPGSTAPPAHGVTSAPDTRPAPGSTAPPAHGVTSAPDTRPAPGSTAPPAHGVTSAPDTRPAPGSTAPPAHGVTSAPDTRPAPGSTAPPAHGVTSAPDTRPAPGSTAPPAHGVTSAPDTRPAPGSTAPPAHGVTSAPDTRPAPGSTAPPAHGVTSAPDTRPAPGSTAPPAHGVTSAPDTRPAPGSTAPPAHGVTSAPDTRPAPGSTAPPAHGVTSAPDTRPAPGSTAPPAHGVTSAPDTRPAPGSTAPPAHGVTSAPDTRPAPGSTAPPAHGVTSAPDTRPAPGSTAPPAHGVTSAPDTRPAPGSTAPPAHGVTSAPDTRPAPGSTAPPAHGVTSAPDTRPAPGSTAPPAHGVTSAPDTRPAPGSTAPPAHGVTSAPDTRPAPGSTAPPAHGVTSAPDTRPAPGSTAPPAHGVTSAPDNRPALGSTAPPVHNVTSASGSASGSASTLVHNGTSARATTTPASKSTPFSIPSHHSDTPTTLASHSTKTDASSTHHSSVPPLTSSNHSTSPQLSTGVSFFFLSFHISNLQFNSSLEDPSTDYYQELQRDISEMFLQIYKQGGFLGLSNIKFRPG

B1: CEA aptamer (Apt) (ssDNA)
DNA: ATACAGCTTCAATT
modifications: 3'-NH2
- binding result (alpha fetoprotein (AFP)): no binding
- binding result [1]: no binding
- binding result [2]: no binding
- binding result (C-reactive protein (CRP)): no binding
- binding result [3]: binds
